What was measured:
[1] = target: EX4-5xGSA-GLP-1R (24–429)–TEV site–tTA (Gila monster | human) (UniProt P43220)
[2] = target: GLP-1-5xGSA-GLP-1R (24–429)–TEV site–tTA (UniProt P43220)
[3] = target: GLP-1 Δ4-5xGSA-GLP-1R (24–429)–TEV site–tTA (UniProt P43220)
[4] = target: GLP-1 Δ5-5xGSA-GLP-1R (24–429)–TEV site–tTA (UniProt P43220)
[5] = target: human GLP-1R stably expressed in AD293 cells (GLP-1R/NlucP-293 cells) (human) (UniProt P43220)
GLP-1R = conditions: covalently attaches to C347; ref [34], [35]; cited from earlier work
From the text: GPCRs have been viewed as ‘allosteric machines’ [33] because many allosteric modulators have been identified binding outside the orthosteric pocket of the physiological activators to modulate endogenous agonist binding and function. […] Although mutating C347 to positively charged lysine or arginine ...

## ß-arrestin 1 fused with TEV protease (from UniProt P49407 1-418) (natural protein)
[1]
  Tango assay (tTA/TRE-luc reporter) in HTL cells; arrestin recruiting signal against the unfused receptor with 1 μM hormone: 150
[2]
  Tango assay (tTA/TRE-luc reporter) in HTL cells; arrestin recruiting signal against the unfused receptor with 1 μM hormone: 150
[3]
  Tango assay (tTA/TRE-luc reporter) in HTL cells, relative to GLP-1-5GSA-FL (Δ0) (% of GLP-1-5GSA-FL (Δ0)): 50
[4]
  Tango assay (tTA/TRE-luc reporter) in HTL cells, relative to GLP-1-5GSA-FL (Δ0) (% of GLP-1-5GSA-FL (Δ0)): 50

## GLP-1(9–37) (peptide)
[5]
  cAMP signal (CRE-NanoLuc luciferase reporter) in GLP-1R/NlucP-293 cells; potency (EC50) of full-length GLP-1 over that of the truncated GLP-1: 1000 fold

## CC[S+]([O-])c1nc(-c2cccc(OCc3ccccc3)c2)cc(C(F)(F)F)n1 (stereo not drawn) [BETP, 4-(3-(Benzyloxy)phenyl)-2-ethylsulfinyl-6 (trifluoromethyl)pyrimidine]
GLP-1R
  allosteric modulation of GLP-1R: positive allosteric modulator
